The values below come from patent US20060292565A1.

This experiment has as its target stimulatory G-protein, Gs.

For Gly-389 beta-1 adrenergic receptor, the [35S]GTPγS binding in the presence of 10 µM isoproterenol is 770000 dpm/mg.
